Measured values reported in article PMC8633003.
Changes are numbered by the printed parent chain.

How the values were obtained:
[1] = molecular target: Aca1 protein of Pseudomonas aeruginosa phage JBD30, full-length (1-79), wild type (Pseudomonas aeruginosa phage JBD30); assay: SEC
Aca1 R44A = molecular target: T1, Aca1 R44A (Pseudomonas aeruginosa phage JBD30, UniProt L7P845 1-79, R44A); assay: ITC
T1 sequence: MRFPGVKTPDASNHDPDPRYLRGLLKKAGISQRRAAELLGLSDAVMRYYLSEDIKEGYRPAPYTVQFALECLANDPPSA

Aca1 R47A = molecular target: T2, Aca1 R47A (Pseudomonas aeruginosa phage JBD30, UniProt L7P845 1-79, R47A); assay: ITC
T2 sequence: T1 sequence with A44R, R47A

Aca1 R22A/Q32A = molecular target: T3, Aca1 R22A/Q32A (Pseudomonas aeruginosa phage JBD30, UniProt L7P845 1-79, R22A;Q32A); assay: ITC
T3 sequence: T1 sequence with R22A, Q32A, A44R

Aca1 R59A = molecular target: T4, Aca1 R59A (Pseudomonas aeruginosa phage JBD30, UniProt L7P845 1-79, R59A); assay: ITC
T4 sequence: T1 sequence with A44R, R59A

Aca1 S42G = molecular target: T5, Aca1 S42G (Pseudomonas aeruginosa phage JBD30, UniProt L7P845 1-79, S42G); assay: ITC
T5 sequence: T1 sequence with S42G, A44R

Aca1 = molecular target: T6, Aca1 (Pseudomonas aeruginosa phage JBD30, UniProt L7P845 1-79); assay: ITC
T6 sequence: T1 sequence with A44R

Aca1 Y48A = molecular target: T7, Aca1 Y48A (Pseudomonas aeruginosa phage JBD30, UniProt L7P845 1-79, Y48A); assay: ITC
T7 sequence: T1 sequence with A44R, Y48A

Aca1 V45A = molecular target: T8, Aca1 V45A (Pseudomonas aeruginosa phage JBD30, UniProt L7P845 1-79, V45A); assay: ITC
T8 sequence: T1 sequence with A44R, V45A

Aca2 R30A = molecular target: T9, Aca2 R30A (Pectobacterium carotovorum temperate …, UniProt H9C180 1-116, R30A); assay: ITC
T9 sequence: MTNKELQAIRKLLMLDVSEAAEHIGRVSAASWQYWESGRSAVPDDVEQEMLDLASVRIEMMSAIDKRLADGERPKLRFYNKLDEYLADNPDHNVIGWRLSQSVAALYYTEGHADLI

Aca2 R39A = molecular target: T10, Aca2 R39A (Pectobacterium carotovorum temperate …, UniProt H9C180 1-116, R39A); assay: ITC
T10 sequence: T9 sequence with A30R, R39A

Aca2 Y34A = molecular target: T11, Aca2 Y34A (Pectobacterium carotovorum temperate …, UniProt H9C180 1-116, Y34A); assay: ITC
T11 sequence: T9 sequence with A30R, Y34A

Work on “Aca1 protein of Pseudomonas aeruginosa phage JBD30, full-length (1-79), wild type (natural protein)” yielded a stoichiometry N [1] of 2.

B1: 21-bp IR2 (dsDNA)
DNA 1: ATTAGGCACAATGTGCCTAAT
DNA 2: ATTAGGCACATTGTGCCTAAT
B1: no binding (Aca1 R44A); no binding (Aca1 R47A); no binding (Aca1 R22A/Q32A). The binding result (Aca1 R59A) was “no binding”, the Kd (Aca1 S42G) was 59.2 nM and the Kd (Aca1) was 74.1 nM. The Kd (Aca1 Y48A) was 2860 nM and the Kd (Aca1 V45A) was 364 nM.

B2: 26-bp ZF40-IR1 blunt (dsDNA)
DNA 1: TGCTTGTTCGCGATTGCGAACATATA
DNA 2: TATATGTTCGCAATCGCGAACAAGCA
B2: no binding (Aca2 R30A); no binding (Aca2 R39A); no binding (Aca2 Y34A).

B3: 23-bp IR2 (dsDNA)
DNA 1: AATTAGGCACAATGTGCCTAATC
DNA 2: GATTAGGCACATTGTGCCTAATT
B3 showed a Kd (Aca1) of 32.2 nM.

B4: 19-bp IR2 blunt (dsDNA)
DNA 1: TTAGGCACAATGTGCCTAA
DNA 2: TTAGGCACATTGTGCCTAA
Molecule B4 has a Kd (Aca1) of 741 nM.

B5: 21-bp IR1 (dsDNA)
DNA 1: AAGCGGCACACTGTGCCTATT
DNA 2: AATAGGCACAGTGTGCCGCTT
With B5 the Kd (Aca1) was 53.2 nM.
